In US20250145973, “CONDITIONED DNA MODIFYING ENZYME COMPRISING HETEROLOGOUS DNA BINDING DOMAIN” (Technische Universität Dresden Körperschaft des …, published 2025):

Target: Brec1-Zif268 (aa278) Rmut (synthetic)
Assay: cell_activity; 100 ug/ml L-arabinose, E. coli
Settings: tags: G-to-R in right linker

Sequence of Brec1-Zif268 (aa278) Rmut (synthetic) (chain, as listed by the source): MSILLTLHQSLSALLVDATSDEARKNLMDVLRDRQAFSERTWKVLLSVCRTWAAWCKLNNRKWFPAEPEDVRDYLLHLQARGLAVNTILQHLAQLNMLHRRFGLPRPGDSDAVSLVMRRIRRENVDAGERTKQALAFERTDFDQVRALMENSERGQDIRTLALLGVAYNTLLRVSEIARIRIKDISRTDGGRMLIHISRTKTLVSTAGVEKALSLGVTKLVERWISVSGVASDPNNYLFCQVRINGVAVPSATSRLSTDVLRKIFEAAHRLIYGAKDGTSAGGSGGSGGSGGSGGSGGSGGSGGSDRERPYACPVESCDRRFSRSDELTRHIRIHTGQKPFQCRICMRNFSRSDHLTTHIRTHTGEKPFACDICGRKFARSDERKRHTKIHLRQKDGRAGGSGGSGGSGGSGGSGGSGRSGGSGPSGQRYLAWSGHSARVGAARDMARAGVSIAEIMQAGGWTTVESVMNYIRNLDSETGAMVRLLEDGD

B1: loxBTR-5-zif (A) (dsDNA)
DNA 1: AGCGTGGGCGTACTGAACCCACTGCTTAAGCCTCAATAAAGCTTGCCTTCAGTACGCCCACGCT
DNA 2: AGCGTGGGCGTACTGAAGGCAAGCTTTATTGAGGCTTAAGCAGTGGGTTCAGTACGCCCACGCT
binding signal: 2.5 fold vs Brec1-Zif268
